Experimental findings from patent US20190062414A1 (PHILOGEN S P A, published 2019) are described below.

The target in one assay is human MMP3 (human, UniProt P08254 100-272). Briefly: Biacore (SPR), scFv; set-up not described.
A further assay concerns the target murine MMP3 (murine, UniProt P28862 100-272). Briefly: Biacore (SPR), scFv; set-up not described.
Assay [1] concerns the target T1, D domain of human Tenascin-C (human, UniProt P24821 1622-1711, limits assumed).
T1 construct: domain: D domain; Coated on a CM5 chip; also called domain D of human Tenascin-C; human tenascin-C D domain
T1 sequence (looked up): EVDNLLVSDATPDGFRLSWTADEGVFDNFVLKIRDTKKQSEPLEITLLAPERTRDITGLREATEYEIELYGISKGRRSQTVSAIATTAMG
Briefly: Biacore (SPR), scFv over CM5 chip coated with human tenascin-C D domain. How it is done:
CPR01 was analysed for antigen binding by Biacore using a CM5 chip coated with the human tenascin-C D domain. The flow rate for the Biacore analysis was set at 10 μL/min.

The target in assay [2] is T2, BCD domains of murine tenascin-C (murine, UniProt Q80YX1 1349-1620, limits assumed).
T2 construct: domain: BCD domains; Coated on a CM5 chip; also called domain BCD of murine Tenascin-C
T2 sequence (looked up): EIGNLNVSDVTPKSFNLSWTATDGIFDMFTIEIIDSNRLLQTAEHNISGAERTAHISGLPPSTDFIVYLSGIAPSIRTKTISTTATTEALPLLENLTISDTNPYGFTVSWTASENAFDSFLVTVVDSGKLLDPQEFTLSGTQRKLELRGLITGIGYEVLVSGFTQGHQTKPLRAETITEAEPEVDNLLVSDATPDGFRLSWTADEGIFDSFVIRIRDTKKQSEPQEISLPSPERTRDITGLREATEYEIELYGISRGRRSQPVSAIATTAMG
Briefly: Biacore (SPR), scFv on BCD domains of murine tenascin-C.

Chain of human MMP3 (P08254 100-272): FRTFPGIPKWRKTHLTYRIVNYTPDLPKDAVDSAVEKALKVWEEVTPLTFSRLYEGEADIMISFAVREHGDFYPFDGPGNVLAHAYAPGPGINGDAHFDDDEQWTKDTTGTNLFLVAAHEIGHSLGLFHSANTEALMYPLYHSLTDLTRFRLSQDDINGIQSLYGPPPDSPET
Chain of murine MMP3 (P28862 100-272): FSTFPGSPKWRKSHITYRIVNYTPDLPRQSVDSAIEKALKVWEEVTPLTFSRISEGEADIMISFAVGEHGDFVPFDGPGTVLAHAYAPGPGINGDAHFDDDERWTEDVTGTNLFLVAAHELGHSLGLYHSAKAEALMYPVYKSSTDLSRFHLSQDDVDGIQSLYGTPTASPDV

B1: scFv(CH01) (scFv)
scFv: EVQLLESGGGLVQPGGSLRLSCAASGFTFSPYAMSWVRQAPGKGLEWVSAITGQGGVTYYADSVKGRFTISRDNSKNTLYLQMNSLRAEDTAVYYCAKISSFHFDYWGQGTLVTVSSGGGGSGGGGSGGGGEIVLTQSPGTLSLSPGERATLSCRASQSVSSHHLAWYQQKPGQAPRLLIYDASSRATGIPDRFSGSGSGTDFTLTISRLEPEDFAVYYCQQPRGAPTTFGQGTKVEIK
notes: First disclosed in PCT/EP2015/067309; also called anti-MMP3 antibody CH01
Turning to B1, in the assay with human MMP3, the dissociation constant (Kd) came to 28 nM, the off-rate constant (koff) was 0.0047 s⁻¹ and the association rate constant (kon) worked out at 170000 M⁻¹ s⁻¹. In the assay with murine MMP3, this molecule yielded an equilibrium dissociation constant (Kd) of 29 nM, a dissociation rate constant (koff) of 0.0025 s⁻¹ and an on-rate (kon) of 80000 M⁻¹ s⁻¹.

B2: scFv(CPR01) (scFv)
scFv: EVQLLESGGGLVQPGGSLRLSCAASGFTFSSYAMSWVRQAPGKGLEWVSAIKARGGLTYYADSVKGRFTISRDNSKNTLYLQMNSLRAEDTAVYYCAKGGAPFDYWGQGTLVTVSSGGGGSGGGGSGGGGSSELTQDPAVSVALGQTVRITCQGDSLRSYYASWYQQKPGQAPVLVIYGKNNRPSGIPDRFSGSSSGNTASLTITGAQAEDEADYYCNSSPLNRLAVVFGGGTKLTVLG
notes: Expressed in CHO.S cells as scFv
With B2, in assay [1], the Kd amounted to 70 nM, the off-rate (koff) amounted to 0.011 s⁻¹ and the kon turned out to be 151000 M⁻¹ s⁻¹. In assay [2], the Kd is 29 nM, the koff is 0.007 s⁻¹ and the kon was 240000 M⁻¹ s⁻¹.
